How the values were obtained:
Details in all cases: tags: Athens Research Technology; chain copies: 2; label: 5' 32P
human IgE [1] = biological target: T1, human IgE (Homo sapiens, UniProt P01854-1 P01854-1:1-428); assay: filter; modified PBS, 1 mM Mg2+, 37 C; D2.0 taken as clone D002
Procedure: Affinities of representative DNA ligands for human IgE were determined by nitrocellulose filter binding experiments and the K_Ds are listed in Table 7. […] Individual clones tested from this pool have affinities in the same range. The affinities were not expected to vary widely since the enriched DNA pool is very homogenous. Ligand D17.0 was picked for truncation experiments. […] However, the affinity could be restored to the level of the full-length ligand by the addition of a 4 basepair stem resulting in the 37 base truncate D17.4. It is possible that the stem in D17.1 is not stable enough to prevent the formation of an alternative secondary structure and that the additional base pair in D17.4 lock in the conformation necessary for IgE binding.

human IgE [2] = biological target: T1, human IgE; assay: filter; modified PBS, 1 mM Mg2+, 37 C; D11.0 taken as clone D011
human IgE [3] = biological target: T1, human IgE; assay: filter; modified PBS, 1 mM Mg2+, 37 C; D31.0 taken as clone D031

T1 sequence (P01854 other isoform, or with tags, fused parts or gaps): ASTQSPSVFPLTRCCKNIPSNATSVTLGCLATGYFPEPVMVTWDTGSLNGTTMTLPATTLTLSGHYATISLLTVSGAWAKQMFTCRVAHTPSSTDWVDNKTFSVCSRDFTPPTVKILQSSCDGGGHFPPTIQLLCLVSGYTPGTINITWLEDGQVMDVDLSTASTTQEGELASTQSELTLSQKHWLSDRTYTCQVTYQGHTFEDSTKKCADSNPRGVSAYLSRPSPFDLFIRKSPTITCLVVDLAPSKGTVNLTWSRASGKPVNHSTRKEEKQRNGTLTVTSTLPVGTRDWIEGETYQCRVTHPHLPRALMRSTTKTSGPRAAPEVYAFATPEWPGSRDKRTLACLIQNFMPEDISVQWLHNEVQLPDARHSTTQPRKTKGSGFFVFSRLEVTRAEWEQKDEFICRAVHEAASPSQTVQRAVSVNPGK

B1: D2.0 (ssDNA)
DNA: CTACCTACGATCTGACTAGCGGCCGGAGCTTTATCCGTTACTCTCAGTGGGTGACTGTCGCTTACTCTCATGTAGTTCC
- Kd (human IgE [1]): 6 nM

B2: D11.0 (ssDNA)
DNA: CTACCTACGATCTGACTAGCACCGGAGTACTTCATCCGTCCCTTCTAGTGGGTACCCGTAGCTTACTCTCATGTAGTTCC
- Kd (human IgE [2]): 8 nM

B3: D31.0 (ssDNA)
DNA: CTACCTACGATCTGACTAGCACGGGTGAGTTGATCCGTCACTCTTAGTGGTGAACCTTGTGCTTACTCTCATGTAGTTCC
- Kd (human IgE [3]): 22 nM
